{"source": "the DeepSol protein solubility set"}
{"assay": "soluble on expression in E. coli; label from the status in PepcDB or PDB records"}
{"sequence": "MGSDKIHHHHHHMPAFNQHDLSHFVGKHLIYTYDNGWNYELYVKNANTIDYRIHSGIVGNRWVKDQQVYIVQVAREVYKISWTEPTGTDVSLIANIADKVFHGTIFFPRWVINNPEKTVCFQNEHIAEMEAYRDAGPAYPTEVIDEFATITFIRDCGENNNDVINCPASELPADFPACLKK", "soluble on expression in E. coli": "not soluble"}
{"sequence": "MSLNNQDISIGKLSRLKIWITDNHLSDDQWSNTKKFIIIKITTEDGIEGWGEAFSINFREKGIAIIIKELFREISNIPNLSIKSFYNKISLLSDGHRGLDFSSATSAIEIALWDISGKLKNLPLNSLLTKSPKPNVPIYATCWSDLKKDTNDYLRQIEKFYGKKYGGIKIYPMLDSLSISIQFVEKVREIVGDELPLMLDLAVPEDLDQTKSFLKEVSSFNPYWIEEPVDGENISLLTEIKNTFNMKVVTGEKQSGLVHFRELISRNAADIFNPDISGMGGLIDIIEISNEASNNGIFISPHCWNSMSVSASAMLHVCSSIPNSEKAEIFPDYINFSKKFCELPFDIIDNKAHINKSAGLGIVIHEDILSELSIYSLDEKSNDEGHHHHHH", "soluble on expression in E. coli": "soluble"}
{"sequence": "MGHHHHHHSHMLENRDYTLIIDKSGSMATPDQKGGRNRWVTAQESTLALASKCEQFDPDGITLYVFSGRFKRYENVTSAKVNQIFQENDPSGTTDLAAVLKHATDDYFQRKGAGKTKPNGETILVVTDGEPDDRKAVMRVIIEASRRMDKDEELAISFIQVGSDAQATRFLKVLDDELQGAGAKFDICDTVTMEDMEDLSLSEVLLNAITD", "soluble on expression in E. coli": "soluble"}
{"sequence": "MGSDKIHHHHHHMYEEWKIVKREAPILGNDQLIENIWKMKREDSPYDIISLHKVNLIGGGNDAVLILPGTWSSGEQLVTISWNGVHYTIPDYRKSIVLYLARNGFNVYTIDYRTHYVPPFLKDRQLSFTANWGWSTWISDIKEVVSFIKRDSGQERIYLAGESFGGIAALNYSSLYWKNDIKGLILLDGGPTKHGIRPKFYTPEVNSIEEMEAKGIYVIPSRGGPNNPIWSYALANPDMPSPDPKYKSISDFLMDSLYVTGSANPYDYPYSKKEDMFPILASFDPYWPYRLSLERDLKFDYEGILVPTIAFVSERFGIQIFDSKILPSNSEIILLKGYGHLDVYTGENSEKDVNSVVLKWLSQQR", "soluble on expression in E. coli": "not soluble"}
{"sequence": "MSLGNAFIALDFETANGKRTSICSVGMVKVVNNEIVESFYTLVNPFDYFSQTNIEVHGITPEDVIDAPSFEYVFPYMMQFIDKLPVVAHNAAFDMNVLHQSLKQLNIETPSMIYFCSYQLAKRTIDAYRYGLKHLMKHYKLDFHGHHDALNDAKACAMITFRLLKHYDNLQSMLQIYGKNLKEGHHHHHH", "soluble on expression in E. coli": "not soluble"}
{"sequence": "SEKANALFETIFMENIMASPIAQTYMGIKQDYDKWDEIGDEADALELARTQKQLAEINQLDASKLDPQTRLSLALLTQNLNNDIKDYQWRYHTYPVNQMRGGHSMIASFLINQHQITDVSDAKAYISRLNGVPKRLTQLQKALEVRAEKGIIAPKFVFGYVISDSQNILKGAPFDKNEDSALLADFRKKVKALSIPETEKAPLIAEAEKALTSQVAPAYKALISYIKTLEAKADTRDGVWKLPDGDAFYNNALARTTTTDMTADEIHQLGLAEVERIHNEMRAIMKKVHFNGTLQAFFAFMRNNPQFYYPNTPEGKAAYLADATQLIDNMHSRLDEVFKVKPKAAMIVKQVESFREKSAGKAFYEQPAPDGSRPGSYYANLYDMKAMPKYQMEALAYHEGIPGHHMQIAISQELKDIPKFRKFGGYTAYIEGWGLYSESFPKEMGLYADPYSDFGRLAMELWRACRLVVDTGIHAKKWTREQGIAYYVDNTPNAKSDAVKMVERHIVMPSQATAYKVGMIKLLELRHKAEKQLGDKFDIRDFHTLILANGALPLDVLEEHVNQWIASVNK", "soluble on expression in E. coli": "not soluble"}
{"sequence": "MPKKEKMAKTPLSDEKQLLLFQQKLLAEEEMAKKKERLLSQFLKDKLAKEEHNSALNLNKINTQWRTVLREVKTRELHKDIEILSQTFERVVDCKDNVIKSLAKDLSEAEEQYAHALRSHLHNVDQLLALQRHRLSLLEESYNMELEALTKEFETERKTIIDQHEKEIHYLQDIFMAMEQNYIDSEYESKLEFQSMWNDLKNMNLEEKHFLRLHLENRVEDLWRKFQDVLKNYTDATEDRKAAFETLQVKDEKSSKEIEVQMKKIQKLQDAITISKGKIMIHSRESEDENRYIRNDKELVLVQLRKLKAQRTQARAASQKNLVRLTLESNATLKALRKIVDKGEKILKLAEICRKFETEEEKVLPFYSSVLTPKEQEGIQKNNLEELTEELTKVMVDYIGMENFWKRYNKVKLEQLSLQHRRAQLLDINGKLREMLKQYLDGISVSDEVLSQLNPLFIVNYQSNLLQPLSIRIAHPGDKQHPTT", "soluble on expression in E. coli": "soluble"}
{"sequence": "MSLKNNEKLIKWLFDTNAIRVCPKDKPFWYTSGTIGPYYINTHFLYGSEEKANKLLEFIDKEKENILKCPDRILEETMKNYQSDPIYRGLIDEMCDFIKNNIDVNEVDYISGGERRDWFFSPIIAKLLNKPHITIYKDLTTVVSSDGKTEELKELNGESVLHIADLITEASSYERAWIPAIKNNGGRIKWSVVVVDRKQGGAELLKSYDIKSFSMVDIDEGHHHHHH", "soluble on expression in E. coli": "soluble"}
{"sequence": "MGSDKIHHHHHHMRLLFSTMFLYEYSTDMIAKAVNLAGYDGVEFWPETPYFWVDRAMEKLECLRDFDNAIHVPVLDLNPVSVNPDICNLTLRETLYSIALAAKIKAKPVTVHAGRRSAAREPVWADYLSLSRYLRISSRYAKIKGVTVGLENSENSINNLCKTADEVRKFAEEYDVMVTLDIKHALLNGGVEEFLELFGRICNVHVSYYDEKMRHVQPSRGKEVGDALKELAELGYDGPLTVELDDLGIGNLDFSKKVEILRKERRFVEKFFKR", "soluble on expression in E. coli": "not soluble"}
{"sequence": "MGSDKIHHHHHHMIKYIALASVVLLVGCSSTAKKPIADDPFYAPVYPDTVPTQVAATGSIYLDSQASSLYSDIRAHRVGDIITVTLKESTQASKSANNEIKKGSDLSVEPVYAGGKNISISGVPIDLGYSDSMNTKRESDADQSNSLDGSISANIIQVLSNGNLVIRGEKWISINNGDEFIRVTGMIRSEDINPDNTIDSTRVANARIQYSGTGTFADSQKVGWLSSFFMSDWWPF", "soluble on expression in E. coli": "not soluble"}
{"sequence": "MSTPVLELRGIVKTFGATRALDGASLRVAAGSVHGLVGENGAGKSTLIKVLAGIHRPDAGSLLLDGQPHGHFSPRQVERLGIGFIHQERLLPARFTVGEALFFGHERRFGPLLDRRSQQREAARLLDDYFGLRLPANALIGELSSAEQQMVQIVRALLIKPRVLVFDEPSVALVQREVERLLRIVQRLRDDGLAIVYISHYLQEIEALCDRVTVLRNGRDVAEVSPRNTSLEQITRLMVNREVGELYPKVAVPAGALLLDVRGLGRARAYQGIDLQVRRGEIVGLTGLVGSGAKELLRSLFGLAPPDSGEVRLDGQPLSLRSPREAVAQGVALMPEERRRQGVALDLSVQENTTLAALSRFVRLGLLSPARERHTTLELIERLRIKAHGAHAKVRQLSGGNQQKVALAKWFARCSSLYLLDEPSVGIDVGAKVEIYRLIGELVKEGAGVLILSSDLPELIGLCDRIHVMHRGAIAARFAAGEANSDRLLAVATGAQRAQNEERPFYAYAIAI", "soluble on expression in E. coli": "not soluble"}
{"sequence": "MSLTEAAKLTFKVTNPNEKVKVRLTFSQSGEQKEVAIDAAGNGNIEITGFTPQYVTMQYTRGRRTLYLDPNQDLTLSFDSDNMWRNTTFEGAGAAINTYLGSKELQSLGMPDMKMQEAALIHKGDSLYAANCQVLEAAKLPADFTAQEKIRLQFYTYYYFSKYALYHPHFGKDDNYIPSKAYYEKLEAITPINAGLLALKEYKAFLPDAISAFSNKGKTVASNSTEQSVNYVDATIQDEKVAEFLIDQFVYNFVDNNGLDEADGLIVLFRKHVKDAKSIEKFNALCTKWEKLRSGNPSAASFSYPDINGKTVSLADLKGKYIYIDVWATWCGPCRGELPALKELEEKYAGKDIHFVSLSCDKNKKAWENMVTKDQLKGIQLHMGTDRTFMDAYLINGIPRFILLDRDGKIISANMTRPSDPKTAEKFNELLGLEGHHHHHH", "soluble on expression in E. coli": "soluble"}
{"sequence": "MSLMKRQFEDVTRIVIKIGTSSLVLPTGKINLEKIDQLAFVISSLMNKGKEVILVSSGAMGFGLDILKMEKRPTNLAKQQAVSSVGQVAMMSLYSQIFAYYQTNVSQILLTRDVVVFPESLANVTNAFESLISLGIVPIVNENDAVSVDEMDHATKFGDNDRLSAVVAGITKADLLIMLSDIDGLFDKNPTIYEDAQLRSHVANITQEIIASAGGAGSKFGTGGMLSKVQSAQMVFENKGQMVLMNGANPRDILRVLEGQPLGTWFKQIEEVRHDEGHHHHHH", "soluble on expression in E. coli": "soluble"}
{"sequence": "MAQTERRDAPELPDFSLLKRLARDQLIFLLEQLPGKKDLFIDADLMSPLDRIANVTILKQHEVDKLYKVELKPIVSSSDQLCFLIRPRIQTVKWISDLVNSDKVAGRFRRYKIIFTPQKFYACETVLEEQGVYGDVTTDEWNFYILPLDDDILSLELPEFFRDNFLEGDQRWVTTGGGALHLLQSVYGSFSKVYGIGRCAKMVYESWRELMEEGEQRTRQPEFAKVFLIDRDVDFVTPLCSQVVYEGLVDDIFRIKCSSVEFGPDVTSSDKSIKVMLNSQDKVFNEIRNEHFSNVFGFLSQKAKNLQTAYDKRRGMDIQQMKAFVADELKGLKQEHRLLSLHIGASESIMKKKTKQDFQELLKTEHSLLEGFEIRECIAYIEEHINRQVSMIDSLRLLCLLSITENGLLSKDYRSLKAQYLQSYGIEHLLTFANLRQLGLLEEQQTGETLTVMESKVGKLVNDKTAGKLTDAFSSLAKKSNFRALSKRLALVPKSGEEYDLRVPRDMAYIFSGAYIPLSCKLIEQVLERDGWTGLEEVTRMLNGQDFAVTGGSSSSEARNKSNGQRIILVMFLGGCTYSEISALRFLGKERGCRFIVLTTAITNSGRLLEALLDKHV", "soluble on expression in E. coli": "soluble"}
{"sequence": "SSSSQHFNLNFTITNLPYSQDIAQPSTTKYQQTKRSIENALNQLFRNSSIKSYFSDCQVLAFRSVSNNNNHTGVDSLCNFSPLARRVDRVAIYEEFLRMTHNGTQLLNFTLDRKSVFVD", "soluble on expression in E. coli": "soluble"}
{"sequence": "MMSGGYKSSGVGNDRSQRSVFVGNISYDVSEDTIRSIFSKAGNVLSIKMVHDRETGKPKGYGFIEFPDIQTAEVAIRNLNGYELSGRILRVDSAAGGMNMEEFGSSSNAPAPVEENPYGPECDAGKAPERISQTVASLAPEKMFELMKQLQESLKNNPSELHKFLVEHPQIAYAVLQAAVVMRIVDPQTALGLLHRNKAATLTPFHNTPQGAPPMVQQQQMPMPPKPTFAHPGPSMGPPMGPPMGPPMGHPQAPQYGQNYGQPVAPQQYKPPPQQQPPVQMRPPVQQPQQNHQEEQQNAELLMQVMQLSEHDLQMLPAGDREKIIELRQQLKRNVK", "soluble on expression in E. coli": "not soluble"}
{"sequence": "MKGTIFAVALNHRSQLDAWQEAFQQSPYKAPPKTAVWFIKPRNTVIGCGEPIPFPQGEKVLSGATVALIVGKTATKVREEDAAEYIAGYALANDVSLPEESFYRPAIKAKCRDGFCPIGETVALSNVDNLTIYTEINGRPADHWNTADLQRNAAQLLSALSEFATLNPGDAILLGTPQARVEIQPGDRVRVLAEGFPPLENPVVDEREVTTRKSFPTLPHPHGTLFALGLNYADHASELEFKPPEEPLVFLKAPNTLTGDNQTSVRPNNIEYMHYEAELVVVIGKQARNVSEADAMDYVAGYTVCNDYAIRDYLENYYRPNLRVKSRDGLTPMLSTIVPKEAIPDPHNLTLRTFVNGELRQQGTTADLIFSVPFLIAYLSEFMTLNPGDMIATGTPKGLSDVVPGDEVVVEVEGVGRLVNRIVSEETAK", "soluble on expression in E. coli": "soluble"}
{"sequence": "MSSALLRAAYAYDRLRAHPPEVAGQIATAMASAVHPKGEEPVFLELGVGTGRIALPLIARGYRYIALDADAAMLEVFRQKIAGVDRKVQVVQADARAIPLPDESVHGVIVVHLWHLVPDWPKVLAEAIRVLKPGGALLEGWDQAEASPEWTLQERWRAFAAEEGFPVERGLHAKRLKEVEEALRRLGLKPRTREVARWREERTPREALEALSERLYSFTQGLPEPVHARVMERLWAWAEAELGDLDRPFPVEKRFLLRVSRLG", "soluble on expression in E. coli": "soluble"}
